Common to all, as to test: AUC
In test [1] the target is vMIP-II L13F (human herpesvirus-8).
Test [2] has the same target. The source holds these as a separate data set.
The target is the same in test [3]. This is another data set of the same source.

The Kd is a measure of binding affinity in units of concentration. The low end stands for a tighter complex, the high end for a looser complex. Broadly, the stoichiometry N is the number of molecules, sites or subunits per partner or assembly.

Read-outs that look alike come from different tables or passages of the source.

Regarding vMIP-II L13F (natural protein), the Kd in test [1] is 129 µM; in test [2], 41 µM; in test [3] it was 0.74 µM. In test [2], this substance registered a stoichiometry N of 2.
